We go through 100 sequences from the supplement of paper PMC9112550, “Optimization of the antimicrobial peptide Bac7 by deep mutational scanning” (BMC Biology, 2022).
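Further: peptides expressed intracellularly from a pBAD plasmid library in pooled LB shake-flask culture, induced with 0.3% L-arabinose, DNA abundance read by NGS, three biological replicates, DESeq2 with apeglm shrinkage.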

For the data set, the system named is Escherichia coli TOP10. Put plainly: shrunken log2 fold change of peptide-encoding DNA abundance (4.5 h post-induction vs induction); higher = less antimicrobial activity (less host growth inhibition). The following applies: time post-induction: 4.5 h; library: site-saturation at positions 5, 18, 19, 20.
Regarding RRIRSRPPRLPRPRPRPSFVPRP, the “shrunken log2 fold change” value is -0.705. The result for RRIRRRPPRLPRPRPRPSVCPRP reads 0.0243; that for RRIRSRPPRLPRPRPRPLKTPRP, -0.0127; that for RRIRDRPPRLPRPRPRPVRIPRP, 0.18. The result for RRIRLRPPRLPRPRPRPCKTPRP reads 0.0231; that for RRIRIRPPRLPRPRPRPRCLPRP, -0.228. To RRIRTRPPRLPRPRPRPGKCPRP belongs 0.0114; to RRIRCRPPRLPRPRPRPTVMPRP, 0.0757; to RRIRFRPPRLPRPRPRPAAIPRP, 1.19.

Take RRIRPRPPRLPRPRPRPKKQPRP: the “shrunken log2 fold change” value was -0.15. Regarding RRIRGRPPRLPRPRPRPMEVPRP, the “shrunken log2 fold change” value is -0.121. To RRIRERPPRLPRPRPRPMSSPRP belongs -0.000155. Regarding RRIRFRPPRLPRPRPRPESLPRP, the “shrunken log2 fold change” value stood at 0.0896. The result for RRIRIRPPRLPRPRPRPIMRPRP reads 0.139; that for RRIRARPPRLPRPRPRPLPLPRP, 0.186. To RRIRGRPPRLPRPRPRPVKVPRP belongs 0.425; to RRIRLRPPRLPRPRPRPLNFPRP, -0.268. Take RRIRTRPPRLPRPRPRPHDCPRP: the “shrunken log2 fold change” value was -0.00088. The result for RRIRKRPPRLPRPRPRPYYVPRP reads -0.197; that for RRIRIRPPRLPRPRPRPLQEPRP, -0.0919. Consider RRIRQRPPRLPRPRPRPNVAPRP, for which the “shrunken log2 fold change” value is 0.236. To RRIRHRPPRLPRPRPRPRKYPRP belongs -0.556. To RRIRRRPPRLPRPRPRPWIHPRP belongs -0.147; to RRIRPRPPRLPRPRPRPDKHPRP, -0.376. To RRIRARPPRLPRPRPRPHCAPRP belongs 0.149; to RRIRYRPPRLPRPRPRPQTRPRP, -0.322.

In the case of RRIRLRPPRLPRPRPRPFPCPRP, the “shrunken log2 fold change” value was 0.0233. Regarding RRIRLRPPRLPRPRPRPNIEPRP, the “shrunken log2 fold change” value was -0.304. To RRIRWRPPRLPRPRPRPEIYPRP belongs 0.21; to RRIRIRPPRLPRPRPRPMRMPRP, 0.0697; to RRIRFRPPRLPRPRPRPVWTPRP, -0.488. To RRIRKRPPRLPRPRPRPFASPRP belongs 0.193; to RRIRRRPPRLPRPRPRPKKRPRP, 0.976. To RRIRGRPPRLPRPRPRPLTCPRP belongs 0.416; to RRIRDRPPRLPRPRPRPFWRPRP, 0.0187.

For the sequence RRIRLRPPRLPRPRPRPWYHPRP, the “shrunken log2 fold change” value came out at 0.112. As for RRIRFRPPRLPRPRPRPNIFPRP, the “shrunken log2 fold change” value is -0.229. To RRIRDRPPRLPRPRPRPRDFPRP belongs 0.106; to RRIRSRPPRLPRPRPRPICIPRP, -0.494; to RRIRYRPPRLPRPRPRPVDKPRP, -0.00804. As for RRIRRRPPRLPRPRPRPDYVPRP, the “shrunken log2 fold change” value was determined as 0.0255. In the case of RRIRYRPPRLPRPRPRPVTEPRP, the “shrunken log2 fold change” value is -0.134. To RRIRGRPPRLPRPRPRPAMVPRP belongs 0.252; to RRIRIRPPRLPRPRPRPCWIPRP, -0.222. To RRIRPRPPRLPRPRPRPVSLPRP belongs -0.104; to RRIRTRPPRLPRPRPRPMVEPRP, 0.0887; to RRIRYRPPRLPRPRPRPDGHPRP, -0.024. The result for RRIRARPPRLPRPRPRPQKKPRP reads -0.0278; that for RRIRDRPPRLPRPRPRPWDDPRP, -0.249; that for RRIRWRPPRLPRPRPRPSIWPRP, -0.353. For the sequence RRIRPRPPRLPRPRPRPFNIPRP, the “shrunken log2 fold change” value was -0.293. The result for RRIRIRPPRLPRPRPRPPALPRP reads 0.0147; that for RRIRGRPPRLPRPRPRPMSYPRP, 0.0417. To RRIRFRPPRLPRPRPRPPDYPRP belongs -0.026; to RRIRVRPPRLPRPRPRPFMCPRP, -0.325; to RRIRSRPPRLPRPRPRPAAHPRP, 0.154. The result for RRIRNRPPRLPRPRPRPTHGPRP reads -0.0213. Take RRIRCRPPRLPRPRPRPQVMPRP: the “shrunken log2 fold change” value is -0.464. To RRIRIRPPRLPRPRPRPMTAPRP belongs -0.2; to RRIRKRPPRLPRPRPRPQPKPRP, 0.19. The result for RRIRIRPPRLPRPRPRPLASPRP reads 0.0396; that for RRIRFRPPRLPRPRPRPEVHPRP, -0.309. To RRIRCRPPRLPRPRPRPMADPRP belongs -0.0181; to RRIRDRPPRLPRPRPRPYYLPRP, -0.134; to RRIRKRPPRLPRPRPRPLWDPRP, 0.609.

In the case of RRIRGRPPRLPRPRPRPINQPRP, the “shrunken log2 fold change” value is -0.0767. To RRIRMRPPRLPRPRPRPEFPPRP belongs 0.745; to RRIRFRPPRLPRPRPRPRSQPRP, -0.105; to RRIRSRPPRLPRPRPRPTACPRP, 0.249. The result for RRIRWRPPRLPRPRPRPNYNPRP reads -0.752.

For the sequence RRIRNRPPRLPRPRPRPIRIPRP, the “shrunken log2 fold change” value worked out at 0.0229. To RRIRLRPPRLPRPRPRPRAKPRP belongs 0.139.

On to RRIRDRPPRLPRPRPRPSLKPRP, for which the “shrunken log2 fold change” value is 0.155. To RRIRHRPPRLPRPRPRPNQHPRP belongs -0.922.

As for RRIRTRPPRLPRPRPRPNIYPRP, the “shrunken log2 fold change” value turned out to be 0.0647. With RRIRERPPRLPRPRPRPFEEPRP, the “shrunken log2 fold change” value is -0.217. To RRIRHRPPRLPRPRPRPCENPRP belongs -0.0381; to RRIRARPPRLPRPRPRPFLNPRP, -0.248. RRIRCRPPRLPRPRPRPACIPRP: the “shrunken log2 fold change” value was -0.186. The result for RRIRERPPRLPRPRPRPIELPRP reads -0.163; that for RRIRWRPPRLPRPRPRPTPSPRP, 0.564. To RRIRSRPPRLPRPRPRPWAQPRP belongs -0.0414; to RRIRGRPPRLPRPRPRPTGAPRP, 1.31; to RRIRDRPPRLPRPRPRPYKFPRP, -0.223. To RRIRMRPPRLPRPRPRPTYNPRP belongs -0.361; to RRIRFRPPRLPRPRPRPSVPPRP, -0.0911. As to RRIRPRPPRLPRPRPRPAHCPRP, the “shrunken log2 fold change” value is 0.0637.

On to RRIRIRPPRLPRPRPRPTCSPRP, for which the “shrunken log2 fold change” value is -0.371. The result for RRIRFRPPRLPRPRPRPMCLPRP reads -0.564; that for RRIRCRPPRLPRPRPRPKMEPRP, -0.204. As for RRIRYRPPRLPRPRPRPYQNPRP, the “shrunken log2 fold change” value is -0.467. To RRIRDRPPRLPRPRPRPSIFPRP belongs -0.049; to RRIRGRPPRLPRPRPRPQLAPRP, 1.19. In the case of RRIRCRPPRLPRPRPRPALQPRP, the “shrunken log2 fold change” value was 0.313.

Consider RRIRHRPPRLPRPRPRPPTVPRP, for which the “shrunken log2 fold change” value was found to be 0.184. The result for RRIRSRPPRLPRPRPRPDYAPRP reads -0.0222. To RRIRWRPPRLPRPRPRPDNIPRP belongs -0.12. The result for RRIRNRPPRLPRPRPRPWTVPRP reads -0.0833; that for RRIRIRPPRLPRPRPRPIWMPRP, -0.176; that for RRIRERPPRLPRPRPRPNSLPRP, 0.0427.
